# Measured values: patent US20240101645A1 (HENRY M JACKSON FOUNDATION FOR THE ADVANCEMENT OF MILITARY …, published 2024)
# Where a chain is given by its changes, count along the chain named.
# T1: MERS-CoV spike antigens (bead panel) (MERS-CoV, UniProt K9N5Q8 18-1296)
# T1 sequence: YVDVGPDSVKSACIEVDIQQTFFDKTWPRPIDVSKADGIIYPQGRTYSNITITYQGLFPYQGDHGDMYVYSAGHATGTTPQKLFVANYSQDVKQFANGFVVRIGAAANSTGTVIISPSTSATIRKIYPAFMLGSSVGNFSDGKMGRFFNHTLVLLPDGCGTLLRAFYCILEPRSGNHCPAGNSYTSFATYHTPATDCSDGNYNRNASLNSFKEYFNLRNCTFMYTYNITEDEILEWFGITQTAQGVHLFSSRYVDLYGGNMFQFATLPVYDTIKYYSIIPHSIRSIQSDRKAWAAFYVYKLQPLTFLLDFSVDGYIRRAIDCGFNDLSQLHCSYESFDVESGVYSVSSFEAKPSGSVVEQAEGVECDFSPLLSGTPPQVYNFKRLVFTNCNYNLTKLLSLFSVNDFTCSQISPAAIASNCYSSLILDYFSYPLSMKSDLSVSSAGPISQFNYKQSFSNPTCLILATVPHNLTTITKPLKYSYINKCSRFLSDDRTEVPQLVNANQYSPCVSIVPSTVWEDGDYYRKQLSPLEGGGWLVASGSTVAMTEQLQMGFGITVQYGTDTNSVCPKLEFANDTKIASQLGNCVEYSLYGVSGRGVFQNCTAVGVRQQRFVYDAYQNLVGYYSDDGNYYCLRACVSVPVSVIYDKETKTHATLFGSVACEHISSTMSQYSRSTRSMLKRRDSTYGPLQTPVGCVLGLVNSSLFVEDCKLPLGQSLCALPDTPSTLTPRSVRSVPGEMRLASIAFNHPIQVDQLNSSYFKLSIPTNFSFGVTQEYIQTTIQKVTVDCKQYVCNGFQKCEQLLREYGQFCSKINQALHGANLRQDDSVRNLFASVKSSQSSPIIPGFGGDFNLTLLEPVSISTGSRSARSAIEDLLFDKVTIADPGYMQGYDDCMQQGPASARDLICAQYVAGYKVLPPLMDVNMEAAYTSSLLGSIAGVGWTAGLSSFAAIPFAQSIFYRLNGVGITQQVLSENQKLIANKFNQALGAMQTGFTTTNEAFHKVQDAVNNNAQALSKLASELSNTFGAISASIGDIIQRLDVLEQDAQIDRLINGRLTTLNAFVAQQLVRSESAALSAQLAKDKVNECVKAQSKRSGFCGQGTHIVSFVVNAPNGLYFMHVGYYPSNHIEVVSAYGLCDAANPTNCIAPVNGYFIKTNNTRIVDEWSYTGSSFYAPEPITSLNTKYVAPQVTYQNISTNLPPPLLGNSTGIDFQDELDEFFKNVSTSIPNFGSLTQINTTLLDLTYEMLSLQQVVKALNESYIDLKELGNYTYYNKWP
# B1: COV_2143 (antibody, V domains shown)
# VH: EVQLVESGGGVVQPGRSLRLSCAASGFTFNSFAMLWVRQAPGKGLEWVALFSYDGSNKYYADSVKGRFTISRDNSKNTLYLQMNNLRAVDTAVYYCARASPYDINGYYLHRIAFDIWGQGTMVTVSS
# VL: QSVLMQPPSVSGAPGQRVTISCTGSSSNIGAGYDVHWYQQLPGTAPKLLMYGNSNRPSGVPDRFSGSKSGTSASLAITGLQAEDEADYYCQSYDSGLSGWVFGGGTKLTVLG
# notes: human IgG1
# B2: COV_1149 (antibody, V domains shown)
# VH: QVQLVESGGGVVQPGRSLRLSCAASGFTFSSYGMHWVRQAPGKGLEWVAVISYDGSNKYYADSVKGRFTISRDNSKNTLYLQMNSLRAEDTAVYYCAKTGGGYSYGLGNVWGQGTLVTVSS
# VL: QSALTQPASVSGSPGQSITISCTGTSSDVGGYNYVSWYQQHPGKAPKLMIYDVSNRPSGVSNRFSGSKSGNTASLTISGLQAEDEADYYCSSYTSSSTLVVFGGGTKLTVLG
# notes: human IgG1
# B3: COV_2057 (antibody, V domains shown)
# VH: EVQLVQSGAEVKKPGESLKISCKGSGYSFISYWIAWVRQMPGKGLEWMGIIYPGDSDTTYSPSFQGQVTISADKSISTAYLQWSSLKASDTAIYYCARLLYYSDSSPLDSWGQGTLVTVSS
# VL: DIQMTQSPSSLSASVGDRVTITCRASQSISTYLNWYQQKPGKAPNLLIYAASSLQSGVPSRFSGSGSGTDFTLTISSLQPEDFATYYCQQSHSTPRTFGPGTKVDIK
# notes: human IgG1
# B4: COV_2125 (antibody, V domains shown)
# VH: EVQLVESGGGVVQPGRSLRLSCAASGFTFSSYGMHWVRQAPGKGLEWVAVISYDGSNKYYADSVKGRFTISRDNSKNTLSLQMNSLRPEDTAVYYCAKDSPYYYDSSGYYPGYFQDWGQGSLVTVSS
# VL: B3 VL with V15I, S28T, T31D, S53T, H92Y, S93I, P100Q, D105E
# notes: human IgG1
# B5: COV_1025 (antibody, V domains shown)
# VH: QVQLVESGGGVVQPGRSLRLSCAASGFTFNTYAMHWVRQAPGKGLEWVAIISYDGGNKYYADSMKGRFTISRDNSKNTLYLQMNSLRAEDTAVYYCARARTGNYYYGMDVWGQGTTVTVSS
# VL: not shown
# notes: human IgG1
# B6: COV_1170 (antibody, V domains shown)
# VH: QVQLVESGGGVVQPGRSLRLSCAASGFTFSTYAMHWVRQAPGKGLEWVALISYDGSNKYYADSVKGRFTISRDNSKNTLDLQMNSLRAEDTAVYYCARSLGGYRTGFDYWGQGTLVTVSS
# VL: DIQLTQSPSFLSASVGDRVTITCRASQGISSYLAWYQQKPGKAPKLLIYAASTLQSGVPSRFSGSGSGTEFTLTISSLQPEDFATYYCQQLNSYPPFTFGPGTKVDIKR
# notes: human IgG1
# B7: COV_2048 (antibody, V domains shown)
# VH: QVQLQESGPGLVKPSETLSLTCTVSGGSISNTSYYWGWIRQPPGKGLEWIGSIYRSGSTYYNPSLKSRVTISIDTSKNQFTLKLSSVTAADTAVYYCARDYYGDYSAKPMEYWGQGTLVTVSS
# VL: QSALTQPRSVSGSPGQSVTISCTGTSSDVGGYNYVSWYQQHPGKAPKLLIYDVSKRPSGVPDRFSGSKSGNTASLTISGLQAEDEADYYCCSYAGSYVVFGGGAKLTVLG
# notes: human IgG1
# B8: COV_2027 (antibody, V domains shown)
# VH: EVQLVESGGGLIQPGGSLRLSCAASGFSVSTNYMSWVRQAPGKGLEWVSIIYSGGGTYYADSVKGRFTISRDTSENTLYLQMNSLRAEDTAVYYCASFLVGATGQPWYWGQGTLVTVSS
# VL: not shown
# notes: human IgG1
# B9: COV_1151 (antibody, V domains shown)
# VH: QVQVQQWGAGLLKPSETLSLTCAVYGGSFNNYYWSWIRQPPGKGLEWIGEINHSGSTNYNPSLMSRVTISVDTSKNQFSLKLTSVTAADTAVYFCARGLPVTTFFSSYYGMDVWGQGTTVTVSS
# VL: EIVLTQSPGTLSLSPGERATLSCRASQSVSRTYLAWYQQKPGQAPRLLIYGASSRATGIPDRFSGSGSGTDFTLTISRLEPEDFAVYYCQHYGSSPWTFGQGTKVEIRR
# notes: human IgG1
# B10: COV_2056 (SEQ ID NO:792/797) (antibody, V domains shown)
# VH: EVQLVESGGGVVQPGRSLRLSCAASGFTFSIYGMHWVRQAPGKGLEWVALISYDGTNKYYADSVKGRFSISRDDSKNTLYLQMNSLRPEDTAVYYCAKVLMMGDSSGFSLGDAFDIWGQGTMVTVSS
# VL: DIQMTQSPSSVSASVGDRVTITCRASQGISNWLAWYQQKPGKAPKLLIYAASSLQSGVPSRFSGSVSGTDFTLTISSLQPEDFATYYCQQANSFPLTFGGGTKVDIKR
# B11: COV_2032 (antibody, V domains shown)
# VH: EVQLVESGGGLVQPGGSLRLSCAASGFTFTTYWMHWVRQAPGKGLVWVSRIKTDGSSTNYADSVKGRFTISRDNAKNMLYLQMNSLRAEDTAVYYCAREGPVSIVYFDYWGQGTLVTVSS
# VL: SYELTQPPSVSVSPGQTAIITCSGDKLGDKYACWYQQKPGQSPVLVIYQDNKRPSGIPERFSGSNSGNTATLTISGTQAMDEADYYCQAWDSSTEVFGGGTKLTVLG
# notes: human IgG1
# B12: COV_2196 (antibody, V domains shown)
# VH: QVQLVQSGAEVKKPGASVKVSCKVSGYTLIELSMHWVRQAPGKGLEWMGGFDPEDAKTIYAQKFQGRVTMTEDTSTDTAYMELSSLTFEDTAVYYCATTPAFMAAAGDFDYWGQGTLVTVSS
# VL: QPVLTQPSSVSVSPGQTATITCSGDVLAKKYARWFQQKPGQAPMLVIYKDTERPSGIPERFSGSSSGTTVTLTINGAQVEDEADYYCYSAAAWVFGGGTKLTVL
# notes: human IgG1
# B13: COV_2077 (antibody, V domains shown)
# VH: QVQLQESGPGLVKPSETLSLTCTVSGGSISSYSWSWIRQPPGKGLEWIGYIYYSGSTNYNPSLKSRVTISVDTSKNQFSLKLSSVTAADTAVYYCARESMGRYSLELRQPESAFDYWGRGTLVTVSS
# VL: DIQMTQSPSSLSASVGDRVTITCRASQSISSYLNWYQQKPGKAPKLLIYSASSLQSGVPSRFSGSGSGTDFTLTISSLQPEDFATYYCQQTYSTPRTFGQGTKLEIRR
# notes: human IgG1
# B14: COV_1166 (antibody, V domains shown)
# VH: EVQLVESGGGLVQPGGSLRLSCAVSGFTFRSFWMSWVRQTPGKGLEWVANIKEDGSEKYYVDSVKGRFTISRDNAKNSLYLQMNSLRAEDTAVYYCAREGRWELLGFAFDIWGQGTMVTVSS
# VL: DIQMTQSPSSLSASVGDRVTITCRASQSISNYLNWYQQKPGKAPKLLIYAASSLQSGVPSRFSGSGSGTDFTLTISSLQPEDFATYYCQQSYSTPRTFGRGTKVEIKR
# notes: human IgG1
# B15: COV_1201 (antibody, V domains shown)
# VH: QVQLVQSGAEVKKPGASMKVSCKASGYTFTGYYIHWVRQAPGQGLEWMGRINPNSGGTNYAQKFQGRVTMTRDTSISTAYMELSRLRSDDTAVYYCAREYYYVPYGMDVWGQGTTVTVSS
# VL: QSALTQPASVSGSPGQSITISCTGTSSDVGGYNFVSWYQHHPGKAPKLMIYEVSNRPSGVSNRFSGSKSGNTASLTISGLQAEDEADYYCSSYTSSSTYVFGTGTKVTVL
# notes: human IgG1
# B16: COV_1172 (antibody, V domains shown)
# VH: QVQLQESGPGLVKPSETLSLTCTVSGGSIRSYYWSWIRQPPGKGLEWIGYIYYSGSTNYSPSLKSRVTISVDTSKNQFSLKLNSVTAADTAVYYCARRGLGYCSGDSCSNAFDIWGQGTMVTVSS
# VL: DIQMTQSPSSLSASVGDRVTITCRASQSISSYLNWYQQKPGRAPELLIYDASSLQSGVPSGFSGSGSGTDFTLTISSLQPEDFATYYCQQSYSTPFTFGPGTKVDIKR
# notes: human IgG1
# B17: COV_2093 (antibody, V domains shown)
# VH: EVQLVESGGGLVQPGGSLRLSCAASGFMFNRFWMSWVRQAPGKGLEWVTNIKQDGSEKNYVDSVKGRFTISRDNAKNSLYLQMNSLRAEDTAVYYCARDGLYYDFRSPSPFYGMDVWGQGTTVTVSS
# VL: DIQMTQSPSSLSASVGDRVTITCRASQSISSYLNWYQHKSGKAPKLLIYAASRLQSGVPSRFSGSGSGTDFTLTIVSLQPEDLATYYCQQSYSTPRTFGGGTKVEIKR
# notes: human IgG1
# B18: COV_1144 (antibody, V domains shown)
# VH: EVQLVESGGGLVQPGGSLRLSCAASGFTFRSFWMSWVRQAPGKGLEWVANIKEDASEKHYVDPVKGRFTISRDNAKNSLYLQLNSLRAEDMAVYYCARVGRGYCTNGLCYTAFEYWGQGTLVTVSS
# VL: DIQMTQSPSSLSASVGDRVTITCRTSQSISNYLNWYQQKPGKAPKLLIYAASSLQSGVPSRFSGSGSGTDFTLTISSLQPEDFATYYCQQSYSTAWTFGQGTKVEIRR
# notes: human IgG1
# Legend:
# [1] = target: T1, MERS-CoV spike antigens (bead panel); test: multiplex bead assay
# [2] = target: SARS-CoV-1 spike antigens (bead panel) (SARS-CoV-1, UniProt P59594 14-1195); test: multiplex bead assay
Binder,binding result [1],binding result [2]
B1,no binding,
B2,no binding,no binding
B3,,no binding
B4,,no binding
B5,no binding,
B6,no binding,
B7,no binding,
B8,,no binding
B9,no binding,
B10,no binding,no binding
B11,no binding,
B12,,no binding
B13,no binding,
B14,no binding,
B15,no binding,no binding
B16,no binding,
B17,no binding,
B18,no binding,
